Laboratory results taken from patent US20230293685A1.

B1: anti-PD-1 antibody clone EH12.2H7 (antibody, from another filing, IgG1, V domains shown)
VH: QVQLQQSGAELAKPGASVQMSCKASGYSFTSSWIHWVKQRPGQGLEWIGYIYPSTGFTEYNQKFKDKATLTADKSSSTAYMQLSSLTSEDSAVYYCARWRDSSGYHAMDYWGQGTSVTVSS
VL: DIVLTQSPASLTVSLGQRATISCRASQSVSTSGYSYMHWYQQKPGQPPKLLIKFGSNLESGIPARFSGSGSGTDFTLNIHPVEEEDTATYYCQHSWEIPYTFGGGTKLEIK

Assays:
[1] = target: PD-1 (programmed cell death 1; CD279) on tumor infiltrating lymphocytes (human) (UniProt Q15116); test: positive magnetic selection of TIL with M1H4-coupled microbeads
Chain of UniProt Q15116 (Q15116 25-288): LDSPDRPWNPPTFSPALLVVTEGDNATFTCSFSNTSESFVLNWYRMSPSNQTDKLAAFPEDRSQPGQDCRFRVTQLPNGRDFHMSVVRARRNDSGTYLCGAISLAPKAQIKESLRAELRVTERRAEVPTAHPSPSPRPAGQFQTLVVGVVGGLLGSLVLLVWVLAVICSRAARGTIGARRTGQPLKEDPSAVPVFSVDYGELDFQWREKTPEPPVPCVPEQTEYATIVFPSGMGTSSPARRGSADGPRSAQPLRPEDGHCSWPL

[2] = target: PD-1 (programmed cell death 1; CD279) on tumor infiltrating lymphocytes (human) (UniProt Q15116); test: flow cytometry re-analysis of cells sorted on EH12.2H7 staining, tumour M1156
[3] = target: PD-1 (programmed cell death 1; CD279) on tumor infiltrating lymphocytes (human) (UniProt Q15116); test: flow cytometry re-analysis of cells sorted on EH12.2H7 staining, tumour OV8074
[4] = target: PD-1 (programmed cell death 1; CD279) on tumor infiltrating lymphocytes (human) (UniProt Q15116); test: positive magnetic selection of REP TIL with EH12.2H7-coupled microbeads; sorted cells stained with secondary mIgG1-PE and aCD3 FITC
[5] = target: PD-1 (programmed cell death 1; CD279) on tumor infiltrating lymphocytes (human) (UniProt Q15116); test: flow cytometry, tumour digest OV8074 stained with anti-PD-1 clone EH12.2H7; percent of CD3+ cells
[6] = target: PD-1 (programmed cell death 1; CD279) on tumor infiltrating lymphocytes (human) (UniProt Q15116); test: flow cytometry, tumour digest H3046 stained with anti-PD-1 clone EH12.2H7; percent of CD3+ cells
[7] = target: PD-1 (programmed cell death 1; CD279) on tumor infiltrating lymphocytes (human) (UniProt Q15116); test: flow cytometry, tumour digest M1156 stained with anti-PD-1 clone EH12.2H7; percent of CD3+ cells

Row | Molecule | purity of PD-1+ TIL after magnetic selection [1] [%] | Post-sort Purity % PD-1+ (of CD3+) [2] [%] | Post-sort Purity % PD-1+ (of CD3+) [3] [%] | purity of PD-1+ TIL after magnetic selection [4] [%] | Pre-sort % PD-1+ (of CD3+) [5] [%] | Pre-sort % PD-1+ (of CD3+) [6] [%] | Pre-sort % PD-1+ (of CD3+) [7] [%]
1 | CD279 (PD-1) Monoclonal Antibody (Clone-MIH4), eBioscience | > 85 |  |  |  |  |  | 
2 | B1 |  | 100 | 98 | > 85 | 70 | 13 | 93
